# Experimental data published in US20210292413A1.
# Columns and labels:
# [1] = target: T1, human Siglec-3 on cells (moDC, PBMC of CHB patients) (human), P20138; experiment: co-IP (IP: Siglec-3) from moDC, lane Mock; Western blot, densitometry [A]; conditions: remark: other sources report otherwise
# [2] = target: T1, human Siglec-3 on cells (moDC, PBMC of …); experiment: co-IP (IP: Siglec-3) from moDC treated with HBV (hHBV); Western blot, densitometry, fold of Mock [A]; conditions: remark: other sources report otherwise
# [3] = target: T1, human Siglec-3 on cells (moDC, PBMC of …); experiment: co-IP (IP: Siglec-3) from moDC treated with anti-Siglec-3 mAb 2B9; Western blot, densitometry, fold of Mock [A]; conditions: remark: other sources report otherwise
# [4] = target: T1, human Siglec-3 on cells (moDC, PBMC of …); experiment: co-IP (IP: Siglec-3) from moDC treated with anti-Siglec-3 mAb 10C8; Western blot, densitometry, fold of Mock [A]; conditions: remark: other sources report otherwise
# [5] = target: T1, human Siglec-3 on cells (moDC, PBMC of …); experiment: co-IP (IP: Siglec-3) from moDC, HBV +, 10C8 -; Western blot, densitometry, normalized to the untreated control [E]; conditions: remark: other sources report otherwise
# [6] = target: T1, human Siglec-3 on cells (moDC, PBMC of …); experiment: co-IP (IP: Siglec-3) from moDC, HBV -, 10C8 +; Western blot, densitometry, normalized to the untreated control [E]; conditions: remark: other sources report otherwise
# [7] = target: T1, human Siglec-3 on cells (moDC, PBMC of …); experiment: co-IP (IP: Siglec-3) from moDC, HBV -, 10C8 -; Western blot, densitometry, normalized to the untreated control [E]; conditions: remark: other sources report otherwise
# [8] = target: T1, human Siglec-3 on cells (moDC, PBMC of …); experiment: co-IP (IP: Siglec-3) from moDC incubated with hHBV for 0 min; Western blot, densitometry, normalized to the starting point [E]
# [9] = target: T1, human Siglec-3 on cells (moDC, PBMC of …); experiment: co-IP (IP: Siglec-3) from moDC incubated with hHBV for 15 min; Western blot, densitometry, normalized to the starting point [E]
# [10] = target: T1, human Siglec-3 on cells (moDC, PBMC of …); experiment: co-IP (IP: Siglec-3) from moDC incubated with hHBV for 30 min; Western blot, densitometry, normalized to the starting point [E]
# [11] = target: T1, human Siglec-3 on cells (moDC, PBMC of …); experiment: co-IP (IP: Siglec-3) from moDC incubated with hHBV for 60 min; Western blot, densitometry, normalized to the starting point [E]
# [12] = target: T1, human Siglec-3 on cells (moDC, PBMC of …); experiment: co-IP (IP: Siglec-3) from moDC incubated 30 mins with 0 copies/mL hHBV; Western blot, densitometry, normalized to the first lane [F]; conditions: remark: other sources report otherwise
# [13] = target: T1, human Siglec-3 on cells (moDC, PBMC of …); experiment: co-IP (IP: Siglec-3) from moDC incubated 30 mins with 10^8 copies/mL hHBV; Western blot, densitometry, normalized to the first lane [F]; conditions: remark: other sources report otherwise
# [14] = target: T1, human Siglec-3 on cells (moDC, PBMC of …); experiment: co-IP (IP: Siglec-3) from moDC incubated 30 mins with 10^9 copies/mL hHBV; Western blot, densitometry, normalized to the first lane [F]; conditions: remark: other sources report otherwise
# [15] = target: T1, human Siglec-3 on cells (moDC, PBMC of …); experiment: co-IP (IP: Siglec-3) from moDC incubated 30 mins with 3x10^8 copies/mL hHBV; Western blot, densitometry, normalized to the first lane [F]; conditions: remark: other sources report otherwise
# [16] = target: T1, human Siglec-3 on cells (moDC, PBMC of …); experiment: co-IP (IP: Siglec-3) from moDC, HBV +, 10C8 + (10C8 given 1 hour before HBV); Western blot, densitometry, normalized to the untreated control [E]; conditions: remark: other sources report otherwise
# T1 sequence (P20138 18-364): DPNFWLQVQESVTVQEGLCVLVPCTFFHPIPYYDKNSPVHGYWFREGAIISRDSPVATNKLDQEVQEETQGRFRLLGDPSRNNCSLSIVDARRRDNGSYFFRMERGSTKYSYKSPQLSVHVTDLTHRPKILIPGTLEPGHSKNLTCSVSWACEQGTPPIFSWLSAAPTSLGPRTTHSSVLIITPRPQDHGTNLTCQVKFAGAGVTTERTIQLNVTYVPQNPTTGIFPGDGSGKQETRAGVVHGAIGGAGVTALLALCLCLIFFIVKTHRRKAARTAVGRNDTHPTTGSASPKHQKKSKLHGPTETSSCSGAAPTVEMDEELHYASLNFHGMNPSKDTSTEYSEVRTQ
binder,measurement,setting,value
"SHP-2, Q06124 2-593 (protein, human, UniProt Q06124 2-593, looked up) TSRRWFHPNITGVEAENLLLTRGVDGSFLARPSKSNPGDFTLSVRRNGAVTHIKIQNTGDYYDLYGGEKFATLAELVQYYMEHHGQLKEKNGDVIELKYPLNCADPTSERWFHGHLSGKEAEKLLTEKGKHGSFLVRESQSHPGDFVLSVRTGDDKGESNDGKSKVTHVMIRCQELKYDVGGGERFDSLTDLVEHYKKNPMVETLGTVLQLKQPLNTTRINAAEIESRVRELSKLAETTDKVKQGFWEEFETLQQQECKLLYSRKEGQRQENKNKNRYKNILPFDHTRVVLHDGDPNEPVSDYINANIIMPEFETKCNNSKPKKSYIATQGCLQNTVNDFWRMVFQENSRVIVMTTKEVERGKSKCVKYWPDEYALKEYGVMRVRNVKESAAHDYTLRELKLSKVGQGNTERTVWQYHFRTWPDHGVPSDPGGVLDFLEEVHHKQESIMDAGPVVVHCSAGIGRTGTFIVIDILIDIIREKGVDCDIDVPKTIQMVRSQRSGMVQTEAQYRFIYMAVQHYIETLQRRIEEEQKSKRKGHEYTNIKYSLADQTSGDQSPLPPCTPTPPCAEMREDSARVYENVGLMQQQKSFR",fold change of SHP-2 co-precipitated with Siglec-3,[1],1 fold
same,fold change of SHP-2 co-precipitated with Siglec-3,[2],1.2 fold
same,fold change of SHP-2 co-precipitated with Siglec-3,[3],4.3 fold
same,fold change of SHP-2 co-precipitated with Siglec-3,[4],1.3 fold
same,fold change of SHP-2 co-precipitated with Siglec-3,[5],2.7 fold
same,fold change of SHP-2 co-precipitated with Siglec-3,[6],1.2 fold
same,fold change of SHP-2 co-precipitated with Siglec-3,[7],1 fold
same,fold change of SHP-2 co-precipitated with Siglec-3,[8],1 fold
same,fold change of SHP-2 co-precipitated with Siglec-3,[9],1.5 fold
same,fold change of SHP-2 co-precipitated with Siglec-3,[10],2.4 fold
same,fold change of SHP-2 co-precipitated with Siglec-3,[11],1.3 fold
same,fold change of SHP-2 co-precipitated with Siglec-3,[12],1 fold
same,fold change of SHP-2 co-precipitated with Siglec-3,[13],1.1 fold
same,fold change of SHP-2 co-precipitated with Siglec-3,[14],1.6 fold
same,fold change of SHP-2 co-precipitated with Siglec-3,[15],1.2 fold
same,fold change of SHP-2 co-precipitated with Siglec-3,[16],1.6 fold
